Assay: soluble fraction after stress (log2 fold change); higher = more stays soluble; pooled small domains, quantitative proteomics
Conditions: stress: pH 4
Procedure, shortened: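 Following acid stress at pH 4, the amount of each small protein domain still soluble was measured in pooled custom libraries by high-throughput quantitative proteomics. Its fold change, on a log2 scale, is higher when more of the domain stayed soluble. This fold change is taken as a measure of aggregation propensity.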

Sequence	soluble fraction (log2)
HMGIDSSVYVEARYELGHLYLKQKKYAAAYASFKEILDMYASTTPGVLPGAYNKLAEIGMKRIPKNKL	-0.182
HMGIIQAQIPGLVSRLFVKKGDKVAVNQRLFILEAMKMENEIDSPIQGMVEKIHITTGSKVEKGDLIMEIV	≥ 0.43
HMGIIYGKNPVLEAISSGTTINKIYAQTSNKEIDSVIKEALKRKIIVVNTDKQKLDKMIDGKNSQGIIASI	0.36
HMGIKAADIVTNDIQFNTQAQFDKYKDLYPTLGWGNYDPNKTYTMQGFKNKLKPNELFTGTPNLKIEDT	-0.105
HMGIKDRIVYIMEKEKLSIPLFAKKIGIGPSTLLHIIRGKNAPSLQVVQAIHKAYPDIDLNWLI	0.0346
HMGIKSSASLQEAAEKAQSAYYDIEHSGVATAVDIQRAWVAMVAAQIDAGEKLDSGTITLYERLKTST	-0.0327
HMGIMNFDTWLKSLPGTPTPTIAAKKSGLAAPTLLRHVERGYSTADNVIAIAKAYGVSPIDALVDNGML	-0.201
HMGIMSEITHRVLRLLGLLESRSTWTGSDLAERLGVTQRTIRRDVIRLRELGYQVDSVQGLDGGYRMS	-0.0721
HMGIPVSIGQLDFNQARGNLALQVRASDFAALEQLRQRLGQTGESVQLGSASRDGDAVSARVVIGGQ	-0.0672
HMGIQQNHMTLHARSVASSANVPAEHFDTLVEKLIESGDIKVWKAREILMNLSRQHEEILDES	-0.365
HMGISGSDLEKMIRNILVNNTDVVETIKSGQDKKGKKQKFLQGLIMKEARGQTDPREAASLLAKLLE	0.202
HMGITMFGQNLKKLRTSKNLSQSKLSKILGISSSTIGMYEQGRRFPDQTILTKIADFFDVSTDYLLGR	0.339
HMGIVAQLPTIRVNGKTLYYYDAQSGDNIYSIAEKLGVTVEDIRANNPGVADGVKPRMRLFFPTSLAK	0.0671
HMGIVYGVIKENWDQDHPGMVKVEILQGESGKNVSDWIPVMSPYAGKEFGAYALPEIGTQAVVAFE	-0.0368
HMGIYDQAAAAYIEFVESKNRAPKWNELIDALYKENGKDWIDRSTLHGLLRRKEFQELLAQKRKEHLV	-0.159
HMGIYFIIAAKNQENNIEEFIRTTLFRIVYGKEESINNITLVDLKSKDNTKNIMEEIARENENVKV	-0.696
HMGKAPREVQVGELLRVPALNAEGEVLRRDGESVELSIQGKKLRLPLAQLEAFSPRRFARRGEGKVRGRIE	0.266
HMGKDLLGYEVFAESGDLVGILKDVMWLPHSDVYVITKGGKEFLIPVIPEVVKGINHEQGVIVISPMEGLL	-0.572
HMGKDTLKLKKNAIPYDENGKKLTNLGYSYIKKTTVLNYYGTKIINGSTYYFLGDGVYIKAANVGTTSH	0.232
HMGKEYERALQQVTKSEIDSDEKLQQQMDALVNSPRISDKEDAWALLLVKKLRNEGVEWDELPDVLSERVQ	-0.856
HMGKGGVAYLLESEFGIELPKDMQREFGPIANDIVDSLGREVSGAELKSMFWKEYIERETPFLLLLVTGQL	-0.762
HMGKIFSELTPREIEVVRLIADGLSNQQIAEELFLSNGTVRNHISTILEKTGLEHRTQIAVMWLR	-0.742
HMGKKIVERRNTILNMVNKYGTLDFPQLRDAFPDVSDVTLRKDLQYLDSTKQAIRTHGGIKSI	-0.00897
HMGKLQFREKLNGILELGKEKHRVLTMEDVEKYFEEDALSEEQMELVYDYLLSQKIAVTGYVKK	0.414
HMGKPPNNRIHRAKRDYALNLVKEHYPDFGPTLAAEKLAEHHGFTVSRETLRKWMIEDGIWLSRKQRR	-0.0217
HMGKQIKEIVEEYYDSTSKNSPVGGSWKTSLDGVDLTSPNITIWTRTKIKYVDGSESIVTPQSL	-0.528
HMGKRPTIQMVAEMAGVSRGTVDRVLNGRSYVSAQVRQRVLAALQETGYISSREHHQQALQS	0.0645
HMGKRRGLKVAEEVFADRGYNPDGTLVNRSLPGAFVKDPDEAIARVIKMVKTKKVTAVNGEEIDIAADSI	-0.462

Sequence	soluble fraction (log2)
HMGKSDEIFIQKSALYEELGQPDRALEMIYSALKSDSLNIDVLHRLVTLLINQNKNEDAILYNQKIID	-0.424
HMGKTEETLQMEKLVEALRRSGRMKYEDAYRIVYAAFPDAKDFEGMLSGAIRAGFIELQMGNDGAFLRAL	-0.67
HMGKVNGFEITVIEGKNVVGSITPRQAIAKNSDGVIQLRGEQSFSATDQVLINELAFYIKSNNLKA	-1.23
HMGLAALLQSGPVAGTVLSHQPGGKVVIAFQGQAYPLNLKGRTLQPGQSVLARMAGEQISLEVI	-0.0159
HMGLDERNLKLFAASLLEQAGKKITESTMTYLLDKTGSDMENIQNEVEKIIGYTMNHTVVTTEDIDAV	-0.745
HMGLDPVFKKWVDDNPWYTENRVLRALTHDYAEELKQTNPQLVGVEFLDQVKKRVQADHPEFFQ	-0.552
HMGLGDLEVVDSIGKIRRDGQQMILAFGRHKGRDVQEVYNEDPRYINWLLSPKGIEDENGRGKVRDYLGIN	-0.678
HMGLKQADFEELASRIFTVLEEKSMTPAEIVRKLNLEPDRISIVIQYLLDEGKLNIKDGFINNSA	-0.773
HMGLLGIYPNPVEGGSVRLLSDADLFGSRFELYDQSGKLVLNGFVTEGNFVSVKGISSGLYISVSYT	0.00514
HMGLLGTDISAETMIGYFKKIDLGFDEETQEVIVPSWRQDLLRDADIAEEVARFYGYDNIPTTLPSGEST	-0.736
HMGLNLIGLKRSGFAPEEVKAMTRAYMYIFKSAEGNFESRLAKAHEKYKDDALIMEMVEFIDDALKG	-0.227
HMGLQEADKQDRIARMKELISFLNEAAKAYYQEGREIVSNLEYDKAYDALLSLEKESGVVLSGSPSQNVG	-0.659
HMGLRERLLNYIAYKGIDKATLERKSGLSNDAVNKMGDNTRVSTLDKISNAFPDINIAWLKTGVGEMILG	0.146
HMGLSAALKARLREVINEMAKSGAQPKLREWALAEGIGNFAKPETPEAAEAVIAKAQELLAEA	0.429
HMGLSASVIQMFADLGYTSEGRSTKEMITDYQIDHSIIKNSTEDGAGTYGPRTKASLSTVHAQYI	-0.535
HMGLSENALAMLKQQETVLIRLIDGRGNQGALASINLIVSRILNLDIVDRTPEDLLRVIASEGEQND	-1.54
HMGMIRFSKEEQMLMMLYSPGSRLGLIAELESMKLQLNSRERKLRNLAESVLKKLEQITDEEFMQFDF	-1.11
HMGMNSGQADFRGISLALSVDAEAEAQRLFTALADGGQVQMPLSKTFFSPAFGMVADRFGVGWMVVTN	-0.0936
HMGMSENIDKVAGGIPYKVEGNKAIINEPLDDATKERLMGKAKEHGYHAAPNQAGGITITLK	0.0104
HMGMSKQKQSSLVRIIMQEISDANEGRMKMSQIIDAALIKGISDSTVRSVISRLSTTGAIYEPQTGTYEW	-0.374
HMGNEEEEAIREAEEAIERVLEYGEPQELNPQNGFIRRLQHQLAEKSHLSSESVGVEPYRRVRISK	-0.00812
HMGNFFDSAILALKNAIQENYGGNVSQAARSLGISVPTLHTWIKGDRKPSLEKLSPILDALNAKIVL	-0.276
HMGNFGDLLKILLDEKELSMGELSKKSGIDKSTISRIANNKQKPNINHLEKMAIHLNINLEELLKASGYEF	-0.857
HMGNFQNIFRKLRTSSNLTQNAIAEKLGISRSTIGMYETGAREPDFETLEKIADYFNVDTDFLLGRTNQTT	-0.0101
HMGNKDAQLVHLAKMNEIQIELMKTGRGYMVTDQNVYNLAKKMGENMGFKHPDLFLTDPAKV	-0.0687
HMGNKDIEILFSEIVEMRNRIIHGFRITSKQGEQILATKTRKKDGNIQFEITKEYLLDFIKKNEELSDMLY	-1.49
HMGNKWALLVVFILNENGSTRFNQLARQIPDISTKVLSNTLQILEADGLVKRTVFPEVPIRVEYELTATGK	-0.987

Source: the domain aggregation screens of Martell et al. (2025)
